Measured values from the supplement of paper PMC9876800.

Tested on: peptide library, one residue held at a place counted from the S/T acceptor
Assay: relative phosphorylation of the sub-library (ratio to the mean residue at this position); higher = residue favoured
Settings: human
Procedure, shortened: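 Relative sub-library phosphorylation, a ratio to the mean residue at that position, was obtained by phosphorimaging and densitometry of spots on streptavidin membranes. Before capture, purified recombinant kinases were incubated for 90 min under kinase-specific conditions with 50 μM biotinylated degenerate peptide sub-libraries and 50 μM ATP spiked with γ-32P-ATP. Each sub-library fixed one residue at one position around a central Ser/Thr.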

MAPK15, construct: Full length, sequence (Q8TD08 whole entry, looked up): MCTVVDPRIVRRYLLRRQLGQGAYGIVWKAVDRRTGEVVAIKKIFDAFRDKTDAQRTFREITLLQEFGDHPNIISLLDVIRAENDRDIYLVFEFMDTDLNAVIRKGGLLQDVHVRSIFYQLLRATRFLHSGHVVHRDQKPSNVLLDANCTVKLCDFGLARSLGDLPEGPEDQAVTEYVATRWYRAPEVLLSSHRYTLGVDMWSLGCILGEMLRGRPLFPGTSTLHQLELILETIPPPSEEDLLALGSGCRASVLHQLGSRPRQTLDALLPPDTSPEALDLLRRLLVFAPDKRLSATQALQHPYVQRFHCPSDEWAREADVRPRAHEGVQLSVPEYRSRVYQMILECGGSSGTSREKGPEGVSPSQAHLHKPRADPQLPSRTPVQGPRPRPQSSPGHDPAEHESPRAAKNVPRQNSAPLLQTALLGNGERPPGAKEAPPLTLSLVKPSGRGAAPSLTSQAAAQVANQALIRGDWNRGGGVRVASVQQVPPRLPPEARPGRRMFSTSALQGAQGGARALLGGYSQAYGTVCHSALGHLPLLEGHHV

MAPK15, construct: Full length (from UniProt Q8TD08)
relative phosphorylation
Settings	at +1	at +2	at +3	at +4	at -1	at -2	at -3	at -4	at -5
A fixed	1.98	0.19	1.12	1.12	0.933	1.36	1.3	1.04	1.08
D fixed	0.214	0.135	0.665	0.726	0.643	0.632	0.992	0.893	0.987
E fixed	0.31	0.115	0.655	0.643	0.517	0.59	0.941	1.01	0.859
F fixed	1.22	0.19	0.874	0.928	1.08	0.688	0.88	0.875	1.06
G fixed	1.05	0.226	1.2	1.11	0.767	0.947	1.5	1.18	1.09
H fixed	1.41	0.573	0.984	0.976	1.06	0.738	1.04	1.09	1.07
I fixed	0.221	0.173	0.598	0.864	0.897	1.17	0.869	0.869	0.831
K fixed	0.432	0.992	1.61	1.41	1.11	0.651	0.9	0.997	1.26
L fixed	0.27	0.189	0.85	0.95	1.55	1.53	0.985	0.959	0.754
M fixed	0.369	0.17	0.799	0.964	1.28	1.31	0.972	0.951	0.815
N fixed	0.436	0.247	0.863	0.853	0.789	0.944	0.965	1.04	0.89
P fixed	4.86	0.192	1.05	1.11	0.93	2.07	1.1	1.06	1.19
Q fixed	0.578	0.498	0.897	1.02	0.888	1.01	1.02	1.03	1.04
R fixed	1.04	12.5	2.31	1.46	1.23	0.817	0.928	1.1	1.24
V fixed	0.421	0.184	0.792	0.841	0.933	1.13	0.864	0.941	0.914
W fixed	0.758	0.232	0.825	1.17	1.06	0.719	0.88	1.02	0.864
Y fixed	1.44	0.225	0.903	0.866	1.34	0.69	0.872	0.956	1.07
pThr fixed	0.325	0.205	0.653	0.578	0.415	0.772	0.936	0.887	0.904
pTyr fixed	0.601	0.177	0.592	0.512	0.486	0.681	0.862	0.905	1.01
